Source: patent US20260061051A1 (JUNO THERAPEUTICS, published 2026)

Assays:
[1] = biological target: T1, Human DLL3 expressed on 293H cells (human, UniProt Q9NYJ7 27-618); experiment: flow cytometry on 293H cells expressing human DLL3, Alexa 647 anti-human IgG1 secondary, 0.6 to 200 nM
T1 construct: also called Human DLL3 cell; human DLL3 ORF-GFP
T1 sequence: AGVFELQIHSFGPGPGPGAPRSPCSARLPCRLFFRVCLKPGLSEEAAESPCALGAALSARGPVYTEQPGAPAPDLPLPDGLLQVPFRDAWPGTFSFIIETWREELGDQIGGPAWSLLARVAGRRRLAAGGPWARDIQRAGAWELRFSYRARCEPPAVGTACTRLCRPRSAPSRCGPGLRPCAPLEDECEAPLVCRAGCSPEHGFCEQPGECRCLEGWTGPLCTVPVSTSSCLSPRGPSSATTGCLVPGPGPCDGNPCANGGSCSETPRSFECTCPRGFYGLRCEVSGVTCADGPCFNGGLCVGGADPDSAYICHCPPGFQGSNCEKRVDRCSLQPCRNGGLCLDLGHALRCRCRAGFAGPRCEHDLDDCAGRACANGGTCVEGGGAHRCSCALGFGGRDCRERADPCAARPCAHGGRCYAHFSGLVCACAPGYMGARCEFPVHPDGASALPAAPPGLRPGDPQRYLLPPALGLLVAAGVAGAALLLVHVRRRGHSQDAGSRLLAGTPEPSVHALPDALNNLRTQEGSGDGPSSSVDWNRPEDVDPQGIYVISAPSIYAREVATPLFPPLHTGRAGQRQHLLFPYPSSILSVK
Protocol: (§1) Human DLL3 or cynomolgus macaque (cyno) DLL3 expressing cell lines were established by transfecting 293H cells with human DLL3 ORF-GFP or cyno DLL3 ORF-GFP plasmids and selecting stable single clone. A dose response curve for the anti-DLL3 mAb-1 binding to 293H cells expressing either human DLL3 or cyno DLL3 was generated by flow cytometry. Cells were incubated with increasing concentrations of anti-DLL3 mAb-1 in the range of 0.6 to 200 nM. Cells were washed then incubated with a secondary antibody (Alexa 647 conjugated anti-human IgG1) to measure the amount of antibody bound to the 293H cells. A dose response curve was fitted from the data using the non-linear regression function in GraphPad Prism version 8. Half-maximal concentration (EC₅₀) value was calculated from the dose response curve.

[2] = biological target: T2, Cynomolgus macaque (cyno) DLL3 expressed on 293H cells (cynomolgus macaque, UniProt Q9NYJ7 27-618 (human entry)); experiment: flow cytometry on 293H cells expressing cyno DLL3, Alexa 647 anti-human IgG1 secondary, 0.6 to 200 nM
T2 construct: also called Cyno DLL3 cell; cyno DLL3 ORF-GFP
T2 chain: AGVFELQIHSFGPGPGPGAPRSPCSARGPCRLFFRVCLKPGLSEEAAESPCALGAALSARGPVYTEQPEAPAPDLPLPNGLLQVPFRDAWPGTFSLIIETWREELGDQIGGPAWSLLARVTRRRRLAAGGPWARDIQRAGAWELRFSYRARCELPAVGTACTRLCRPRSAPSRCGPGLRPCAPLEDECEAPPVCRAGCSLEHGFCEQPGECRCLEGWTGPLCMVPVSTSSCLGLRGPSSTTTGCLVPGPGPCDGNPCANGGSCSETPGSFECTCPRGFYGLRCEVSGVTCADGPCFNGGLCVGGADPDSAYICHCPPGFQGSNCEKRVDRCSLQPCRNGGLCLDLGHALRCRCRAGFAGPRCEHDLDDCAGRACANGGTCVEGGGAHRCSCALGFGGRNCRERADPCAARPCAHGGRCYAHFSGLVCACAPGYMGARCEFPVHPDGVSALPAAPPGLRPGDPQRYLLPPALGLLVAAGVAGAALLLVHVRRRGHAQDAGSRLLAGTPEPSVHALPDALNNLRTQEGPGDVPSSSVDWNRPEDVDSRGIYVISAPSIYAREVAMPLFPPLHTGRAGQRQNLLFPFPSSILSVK
Protocol: as §1

[3] = biological target: T3, Human DLL3 (hDLL3) antigen (human, UniProt Q9NYJ7 27-492); experiment: SPR, Biacore 8K, antibody captured on protein G chip, hDLL3 as analyte, multi-cycle
T3 construct: Soluble analyte in SPR; also called hDLL3 protein; soluble target antigen DLL3
T3 sequence: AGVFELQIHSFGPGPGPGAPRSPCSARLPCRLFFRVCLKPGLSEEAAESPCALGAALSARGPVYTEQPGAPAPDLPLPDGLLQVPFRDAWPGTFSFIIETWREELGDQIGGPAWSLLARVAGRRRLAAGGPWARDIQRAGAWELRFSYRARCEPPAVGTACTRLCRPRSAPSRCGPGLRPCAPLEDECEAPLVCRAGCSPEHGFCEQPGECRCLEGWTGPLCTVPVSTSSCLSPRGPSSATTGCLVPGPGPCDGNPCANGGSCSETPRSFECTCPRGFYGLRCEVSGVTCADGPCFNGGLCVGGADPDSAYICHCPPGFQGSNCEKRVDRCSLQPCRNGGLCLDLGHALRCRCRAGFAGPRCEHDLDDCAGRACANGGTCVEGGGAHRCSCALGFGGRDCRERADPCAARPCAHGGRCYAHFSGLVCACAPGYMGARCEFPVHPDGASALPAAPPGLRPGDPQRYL
Protocol: The Biacore SPR 8K machine was used for kinetics binding analysis. The sensor surface of a protein G chip (series s Cat #29179315) was used to capture the ligands. 2 μg/ml of purified anti-DLL3 antibody was diluted in running buffer (0.01M HEPES, 0.15 NaCl, 3 mM EDTA, 0.005% Tween-20). The diluted antibody was then injected at a flow rate of 10 μL/min for 60 seconds. Human DLL3 (hDLL3) antigen was diluted in the same running buffer to 6 concentrations (30, 10, 3.33, 1.11, 0.37 and 0 nM). hDLL3 was then injected on all channels (with each channel having its own reference point) at a flow rate of 30 uL/min for an association phase of 300 seconds, followed by 600 seconds of dissociation. 6 cycles of running analyte were repeated according to analyte concentrations in ascending order. After each cycle of interaction analysis, the sensor chip surface was regenerated completely with Glycine-HCL pH 1.5 at a flow rate of […] for 60 s. The binding of the anti-DLL3 antibody and hDLL3 protein was analyzed by multi-cycle method.

B1: DLL3-mAb-1 (antibody, human IgG1, kappa, V domains shown)
VH: QVQLQESGPGLVKPSQTLSLTCTVSGDSISSDGYYWSWIRQHPGKGLEWIGYIYYSGNTYYNPSLKSRVTISVDTSKNQFSLKLTSVTAADTAIYYCAIDTASALAYWGQGTLVTVSS
VL: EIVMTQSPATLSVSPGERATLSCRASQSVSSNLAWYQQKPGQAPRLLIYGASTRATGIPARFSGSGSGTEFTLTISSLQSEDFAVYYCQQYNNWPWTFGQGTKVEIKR
notes: It was captured on a protein G chip and detected with anti-human IgG1, and it is a fully human antibody with a fixed human kappa light chain; also called anti-DLL3 mAb-1; anti-DLL3 antibody DLL3-mAb-1
**Q.** Which EC50 [1] does the source give for B1 here?
**A.** 15.6 nM

**Q.** And the EC50 [2]?
**A.** 10.4 nM

**Q.** What about the Kd [3] of the same binder?
**A.** 58.8 nM

**Q.** What about the koff [3] of the same binder?
**A.** 0.0137 s⁻¹

**Q.** What about the kon [3] of the same binder?
**A.** 233000 M⁻¹ s⁻¹
